The source of these data is patent US20210079060A1.

The target of test [1] is CD19-FnEGFR (FIG. 15A). Kind of test: flow cytometry, yeast display, left panel; FMC63 + GaM-A647 (FL4-A) against biotin-EGFR + strep-A488 (FL1-A). (In general: Flow cytometry measures light scatter and fluorescence of single cells or particles in a stream.)
The target of test [2] is CD19-scFvHER2 (FIG. 15A). Kind of test: flow cytometry, yeast display, right panel; FMC63 + GaM-A647 (FL4-A) against biotin-HER2 + strep-A488 (FL1-A).
Test [3] has as its target CD19-FnEGFR (FIG. 15A). Kind of test: flow cytometry, yeast display, left panel; FMC63 + GaM-A647 (FL4-A) against biotin-EGFR + strep-A488 (FL1-A); Q8 64.9 also printed.
Test [4] deals with CD19-scFvHER2 (FIG. 15A). Kind of test: flow cytometry, yeast display, right panel; FMC63 + GaM-A647 (FL4-A) against biotin-HER2 + strep-A488 (FL1-A); Q8 30.1 also printed.
Test [5] deals with yeast-displayed wild-type CD19 (extracellular domain) (human) (UniProt P15391). Kind of test: flow cytometry, yeast display, Aga2p-CD19, 22 °C pre-treat; mAb binding against CD19 per yeast.
Test [6] has the same target. Kind of test: flow cytometry, yeast display, CD19-Aga2p, 22 °C pre-treat; mAb binding against CD19 per yeast.

Sequence of yeast-displayed wild-type CD19 (extracellular domain) (human) (P15391 20-291): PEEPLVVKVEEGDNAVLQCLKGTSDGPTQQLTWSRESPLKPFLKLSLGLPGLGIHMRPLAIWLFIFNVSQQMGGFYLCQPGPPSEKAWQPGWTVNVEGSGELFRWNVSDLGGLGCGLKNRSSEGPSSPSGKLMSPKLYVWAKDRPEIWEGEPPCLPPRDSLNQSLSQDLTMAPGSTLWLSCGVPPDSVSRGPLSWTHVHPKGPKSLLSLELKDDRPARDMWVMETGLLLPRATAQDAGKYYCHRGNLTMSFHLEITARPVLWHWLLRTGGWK

Regarding FMC63 (antibody), the figures for the Q6, percent of events positive for FMC63 and biotin-target in the test with CD19-FnEGFR (FIG. 15A) [1] and with CD19-scFvHER2 (FIG. 15A) [2] were 0.034 and 35.1, respectively. For the same substance, the Q5, percent of events positive for FMC63 and negative for biotin-target with CD19-FnEGFR (FIG. 15A) [3] amounted to 35.1; in the test with CD19-scFvHER2 (FIG. 15A) [4], 31.8.
Consider 4G7 (antibody), for which the percent of yeast in gate R7 (CD19-displaying, no mAb signal; taken as the lower dashed gate) in test [5] came to 37.2%. Also, the percent of yeast in gate R8 (CD19-displaying, no mAb signal; taken as the lower dashed gate) in test [6] turned out to be 51.6%.
